Columns and labels:
[1] = target: binding of FAM19A5 protein to LRRC4B (amino acids 453-576)-hFc (Homo sapiens, UniProt Q7Z5A7); assay: Competitive inhibition assay, plate coated with LRRC4B (amino acids 453-576)-hFc, peptides at 20 nM
Text: (§1) Next, to assess whether polypeptides comprising the binding domains of LRRC4 or LRRC4C proteins can have similar inhibitory effects on LRRC4B protein binding, the following synthetic peptides were constructed: (1) FBC4-23 (contains the binding domain of the LRRC4 protein, i.e., YSFFTTVTVETTE); and (2) FBC4C-23 (contains the binding domain of the LRRC4C protein, i.e., FSYFSTVTVETME). Then, the ability of the peptides to inhibit the binding of LRRC4 protein family members to FAM19A5 protein was assessed using a competitive inhibition assay. Briefly, plates were coated with 100 nM of either LRRC4B protein fragment #1 (amino acids 36-576 of SEQ ID NO: 2; SEQ ID NO: 5) or LRRC4B protein fragment #2 (amino acids 453-576 of SEQ ID NO: 2; SEQ ID NO: 7). Then, recombinant FAM19A5 protein (5 ng/ml for plates coated with LRRC4B fragment #1; and 1 ng/mL for plates coated with LRRC4B fragment #2) was added to the plates in combination with 20 nM of the FBC4-23, FBC4C-23, and FB-20 peptides. The plates were incubated at 37° C. and then, the amount of FAM19A5 protein bound to the coated LRRC4B protein fragments was assessed using HRP-conjugated anti-FAM19A5 (1-65) antibody.
(§2) Next, to determine the minimal sequence required to inhibit the interaction of FAM19A5 and members of the LRRC4 protein family, ten FB-20 peptide variants were constructed by serially deleting one or more amino acids from the N-terminus or C-terminus of the FB-20 peptide. Then, a competitive inhibition assay was used to assess the ability of the different FB-20 peptide variants to inhibit the interaction between FAM19A5 and LRRC4B protein. Again, plates were coated with 100 nM of either LRRC4B protein fragment #1 (amino acids 36-576 of SEQ ID NO: 2; SEQ ID NO: 5) or LRRC4B protein fragment #2 (amino acids 453-576 of SEQ ID NO: 2; SEQ ID NO: 7). Then, recombinant FAM19A5 protein (5 ng/ml for plates coated with LRRC4B fragment #1; and 1 ng/mL for plates coated with LRRC4B fragment #2) was added to the plates in combination with 20 nM of the different peptides described above. After incubating the plates at 37° C., the amount of FAM19A5 protein bound to the coated LRRC4B protein fragments was assessed using HRP-conjugated anti-FAM19A5 (1-65) antibody.
To identify the critical amino acid residues, multiple FB-20 peptide mutants were constructed, in which the individual residues of the core binding domain (i.e., YTYFTTVTVETLE; SEQ ID NO: 15) were substituted with alanine (A) or asparagine (N). Then, the ability of these FB-20 peptide mutants to inhibit the interaction between LRRC4B and FAM19A5 proteins was assessed, as described in Examples 3 and 4.

[2] = target: binding of FAM19A5 protein to full-length ectodomain of the LRRC4B protein (amino acids 36-576 of SEQ ID NO: 2) (Homo sapiens, UniProt Q7Z5A7); assay: Competitive inhibition assay, plate coated with full-length ectodomain of LRRC4B (amino acids 36-576); details: for inhibition of interaction between FAM19A5 and the coated LRRC4B protein fragments (in words): statement covers both coats, LRRC4B (36-576) and LRRC4B (453-576)
Protocol: Next, to further assess the role that the binding domain of the LRRC4B protein has on the interaction between FAM19A5 protein and members of the LRRC4 protein family, a competitive inhibition assay was used to determine whether different LRRC4B deletion constructs from Example 2 could inhibit the binding of FAM19A5 to the full-length ectodomain of the LRRC4B protein (i.e., amino acids 36-576 of SEQ ID NO: 2; SEQ ID NO: 5). Briefly, 100 nM of the full-length ectodomain of the LRRC4B protein was used to coat a plate, and then recombinant FAM19A5 protein (5 ng/mL) was added to the plate in combination with the following LRRC4B deletion constructs (increasing concentrations): (1) LRRC4B (453-576) (i.e., construct #11 in Table 6); (2) LRRC4B (453-576) mutant (comprises alanine substitutions at positions 488 and 489 of SEQ ID NO: 2; SEQ ID NO: 16); (3) LRRC4B (484-576) (i.e., construct #12 in Table 6); (4) LRRC4B (482-576); (5) LRRC4B (482-497); and (6) LRRC4B (498-576). The plates were incubated at 37° C., and then, the amount of FAM19A5 bound to the coated LRRC4B ectodomain protein was measured using HRP-conjugated anti-FAM19A5 (1-65) antibody.
As described in Example 3, there appeared to be much similarity in the binding domains of the different members of the LRRC4 family. […] Then, recombinant FAM19A5 protein (5 ng/mL) was added in combination with one of the following: (i) LRRC4B (484-576) protein fragment, (ii) LRRC4B (453-576, AA) protein fragment, and (iii) synthetic FB-20 peptide. The plates were incubated at 37° C., and then, the amount of FAM19A5 protein bound to the coated LRRC4, LRRC4B, or LRRC4C proteins was measured using anti-FAM19A5 (1-65) antibody.
as §1
as §2, with “antibody. […]” for “antibody.”

FAM19A5 protein [3] = target: T1, FAM19A5 protein (Homo sapiens, UniProt Q7Z5A7); assay: competitive inhibition ELISA; competitor: coated LRRC4B(36-576)-hFc
FAM19A5 protein [4] = target: T1, FAM19A5 protein; assay: competitive inhibition ELISA; competitor: coated LRRC4B(453-576)-hFc
[5] = Table 9, deletion variants, 20 nM peptide, FAM19A5 1 ng/mL
[6] = Table 9, deletion variants, 20 nM peptide, FAM19A5 5 ng/ml
[7] = Table 10, alanine/asparagine mutants

Sequence of binding of FAM19A5 protein to full-length ectodomain of the LRRC4B protein (amino acids 36-576 of SEQ ID NO: 2) (Q7Z5A7 44-132): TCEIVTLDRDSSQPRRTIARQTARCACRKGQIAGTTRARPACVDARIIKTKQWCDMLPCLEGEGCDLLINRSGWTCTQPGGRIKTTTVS
Sequence of binding of FAM19A5 protein to LRRC4B (amino acids 453-576)-hFc (Q7Z5A7 44-132): as above

Molecule: KNYTYFTTVTNKETQ [FB-m8dC]
- Inhibition rate (%) LRRC4B (amino acids 453-576)-hFc [1, 5]: −0.9%
- inhibition of interaction between FAM19A5 and the coated LRRC4B protein fragments (in words) ([2]; 20 nM peptide): failed to significantly inhibit
- Inhibition rate (%) LRRC4B (amino acids 36-576)-hFc [2, 6]: 5.1%

Molecule: GYTYATTVTVETLETQPGEE [FB-20[A4]]
- Inhibition rate (%) LRRC4B (amino acids 453-576)-hFc [1, 7]: 1.5%
- Inhibition rate (%) LRRC4B (amino acids 36-576)-hFc [2, 7]: 2.7%

Molecule: GYTAFTTVTVETLETQPGEE [FB-20[A3]]
- Inhibition rate (%) LRRC4B (amino acids 453-576)-hFc [1, 7]: 0.0%
- Inhibition rate (%) LRRC4B (amino acids 36-576)-hFc [2, 7]: 5.9%

Molecule: NYSFFTTVTVETTEISPEDTTRK [FBC4-23]
- Inhibition rate (%) LRRC4B (amino acids 453-576)-hFc ([1]; Table 8, 20 nM peptide, FAM19A5 1 ng/mL): 40.4%
- inhibition of interaction between FAM19A5 and the coated LRRC4B protein fragments (in words) ([2]; 20 nM peptide): significantly decreased the interaction
- Inhibition rate (%) LRRC4B (amino acids 36-576)-hFc ([2]; Table 8, 20 nM peptide, FAM19A5 5 ng/ml): 64.1%

Molecule: GYTYFTTVTVENLETQPGEE [FB-20[N11]]
- Inhibition rate (%) LRRC4B (amino acids 453-576)-hFc [1, 7]: 55.6%
- Inhibition rate (%) LRRC4B (amino acids 36-576)-hFc [2, 7]: 74.1%

Molecule: KNYTYFTTVTVENKETQ [FB-m10dC]
- Inhibition rate (%) LRRC4B (amino acids 453-576)-hFc [1, 5]: 21.9%
- Inhibition rate (%) LRRC4B (amino acids 36-576)-hFc [2, 6]: 62.0%

Molecule: GYTYFTTVTVETLATQPGEE [FB-20[A13]]
- Inhibition rate (%) LRRC4B (amino acids 453-576)-hFc [1, 7]: 27.2%
- Inhibition rate (%) LRRC4B (amino acids 36-576)-hFc [2, 7]: 51.4%

Molecule: KNYTYFTTVTVNKETQ [FB-m9dC]
- Inhibition rate (%) LRRC4B (amino acids 453-576)-hFc [1, 5]: 2.7%
- inhibition of interaction between FAM19A5 and the coated LRRC4B protein fragments (in words) ([2]; 20 nM peptide): failed to significantly inhibit
- Inhibition rate (%) LRRC4B (amino acids 36-576)-hFc [2, 6]: 16.8%

Molecule: GYTYFTTVTAETLETQPGEE [FB-20[A9]]
- Inhibition rate (%) (FAM19A5 protein [3]): 21.5%
- Inhibition rate (%) (FAM19A5 protein [4]): 3.8%

Molecule: GYTYFTTATVETLETQPGEE [FB-20[A7]]
- Inhibition rate (%) (FAM19A5 protein [3]): 26.8%
- Inhibition rate (%) (FAM19A5 protein [4]): 7.9%

Molecule: GYTYFTTVTNETLETQPGEE [FB-20[N9]]
- Inhibition rate (%) (FAM19A5 protein [3]): 17.5%
- Inhibition rate (%) (FAM19A5 protein [4]): 6.5%

Molecule: GYTYFTTVTVNTLETQPGEE [FB-20[N10]]
- Inhibition rate (%) (FAM19A5 protein [3]): 27%
- Inhibition rate (%) (FAM19A5 protein [4]): 10.8%

Molecule: GYTYFTTNTVETLETQPGEE [FB-20[N7]]
- Inhibition rate (%) (FAM19A5 protein [3]): 24.5%
- Inhibition rate (%) (FAM19A5 protein [4]): 8.3%

Molecule: GYTYNTTVTVETLETQPGEE [FB-20[N4]]
- Inhibition rate (%) (FAM19A5 protein [3]): -1.3%
- Inhibition rate (%) (FAM19A5 protein [4]): 2.5%

Molecule: GYTYFTTVAVETLETQPGEE [FB-20[A8]]
- Inhibition rate (%) (FAM19A5 protein [3]): 3.9%
- Inhibition rate (%) (FAM19A5 protein [4]): -0.4%

Molecule: GYTYFTTVTVENLETQPGEE [FB-20[N11]]
- Inhibition rate (%) (FAM19A5 protein [3]): 74.1%
- Inhibition rate (%) (FAM19A5 protein [4]): 55.6%

Molecule: GYTAFTTVTVETLETQPGEE [FB-20[A3]]
- Inhibition rate (%) (FAM19A5 protein [3]): 5.9%
- Inhibition rate (%) (FAM19A5 protein [4]): 0%

Molecule: GYTYFTTVTVATLETQPGEE [FB-20[A10]]
- Inhibition rate (%) (FAM19A5 protein [3]): 19.6%
- Inhibition rate (%) (FAM19A5 protein [4]): 6.4%

Molecule: GYNYFTTVTVETLETQPGEE [FB-20[N2]]
- Inhibition rate (%) (FAM19A5 protein [3]): -0.7%
- Inhibition rate (%) (FAM19A5 protein [4]): -2%

Molecule: GYTYFTTVNVETLETQPGEE [FB-20[N8]]
- Inhibition rate (%) (FAM19A5 protein [3]): 2.9%
- Inhibition rate (%) (FAM19A5 protein [4]): -2.4%

Molecule: GYTYFTTVTVEALETQPGEE [FB-20[A11]]
- Inhibition rate (%) (FAM19A5 protein [3]): 73.4%
- Inhibition rate (%) (FAM19A5 protein [4]): 50.3%

Molecule: GNTYFTTVTVETLETQPGEE [FB-20[N1]]
- Inhibition rate (%) (FAM19A5 protein [3]): 11.9%
- Inhibition rate (%) (FAM19A5 protein [4]): 3.1%

Molecule: GYTYFTNVTVETLETQPGEE [FB-20[N6]]
- Inhibition rate (%) (FAM19A5 protein [3]): -11.4%
- Inhibition rate (%) (FAM19A5 protein [4]): -0.4%

Molecule: GYTNFTTVTVETLETQPGEE [FB-20[N3]]
- Inhibition rate (%) (FAM19A5 protein [3]): -5%
- Inhibition rate (%) (FAM19A5 protein [4]): 4%

Molecule: GYAYFTTVTVETLETQPGEE [FB-20[A2]]
- Inhibition rate (%) (FAM19A5 protein [3]): 1%
- Inhibition rate (%) (FAM19A5 protein [4]): -0.4%

Molecule: GYTYFNTVTVETLETQPGEE [FB-20[N5]]
- Inhibition rate (%) (FAM19A5 protein [3]): 56.1%
- Inhibition rate (%) (FAM19A5 protein [4]): 30.5%

Molecule: GYTYATTVTVETLETQPGEE [FB-20[A4]]
- Inhibition rate (%) (FAM19A5 protein [3]): 2.7%
- Inhibition rate (%) (FAM19A5 protein [4]): 1.5%

Molecule: GYTYFTAVTVETLETQPGEE [FB-20[A6]]
- Inhibition rate (%) (FAM19A5 protein [3]): 17.9%
- Inhibition rate (%) (FAM19A5 protein [4]): 11%

Molecule: GYTYFATVTVETLETQPGEE [FB-20[A5]]
- Inhibition rate (%) (FAM19A5 protein [3]): 53.4%
- Inhibition rate (%) (FAM19A5 protein [4]): 22.2%

Molecule: GATYFTTVTVETLETQPGEE [FB-20[A1]]
- Inhibition rate (%) (FAM19A5 protein [3]): 17.2%
- Inhibition rate (%) (FAM19A5 protein [4]): 3.6%

From US20240238445A1, “INHIBITORS AND USES THEREOF” (NEURACLE SCIENCE CO., LTD., priority 2021, published 2024)
